B1: Serine/threonine-protein phosphatase 1 regulatory subunit 10 (Mus musculus), Q80W00 (parent)
chain: MGSGPIDPKELLKGLDSFLTRDGEVKSVDGISKIFSLMKEARKMVSRCTYLNIILQTRAPEVLVKFIDVGGYKLLNNWLTYSKTTNNIPLLQQILLTLQHLPLTVDHLKQNNTAKLVKQLSKSSEDEELRKLASVLVSDWMAVIRSQSSTQPAEKDKKKRKEEGKSRTTLPERPLTEVKAETRAEEAPEKKKEKPKSLRTTAPSHAKFRSTGLELDTPSLVPVKKNSSTVVVSDKYNLKPIPLKRQSATAAPGDAAPPAEKKYKPLNTAPNTTKEIKVKIIPPQPMEGLGFLDALNSAPVPGIKIKKKKKVLSPTAAKPSPFEGKTSTEQSTAKPSSPEPAPPAEPMDTDRPGTPVPPVEVPELMDAASSEPGALDAKPVDSPGDPNQLTRKGRKRKTVTWPEEGKLREYFYFELDETERVNVNKIKDFGEAAKREILSDRHAFETARRLSHDNMEEKVPWVCPRPLVLPSPLVIPGSNSQERYIQAEREKGILQELFLNKESPHEPDPEPYEPIPPKLIPLDEECAMDETPYVETLEPGGSGGSPDGAGGSKLPPVLANLMGSMGAGKSPQGPGGGGINVQEILTSIMGSPNSHPSEELLKQPDYSDKLKQMLVPHGLLGPGPVANGFPPGGPGGPKGMQHFPPGPGGPMPGPHGGPGGPVGPRLLGPPPPSRGGDPFWDGPGDPMRGGPMRGGPGPAPGPYHRGRGGRGGNEPPPPPPFRGARGGRSGGGPPNGRGGPGGGGMVGGGGHRPHEGPGGSMGSGHRSHDGPGGNMGSGHRSHDGPGGNMGGSGGHRSHEGPGHGGPHGHRPHDVPSHRGHDHRGPPPHEHRGHDGHGGGGHRGHDGGHSHGGDMSNRPVCRHFMMKGNCRYENNCAFYHPGVNGPPLP
B2: TERF1-interacting nuclear factor 2 (Homo sapiens), Q9BSI4 (parent)
chain: MATPLVAGPAALRFAAAASWQVVRGRCVEHFPRVLEFLRSLRAVAPGLVRYRHHERLCMGLKAKVVVELILQGRPWAQVLKALNHHFPESGPIVRDPKATKQDLRKILEAQETFYQQVKQLSEAPVDLASKLQELEQEYGEPFLAAMEKLLFEYLCQLEKALPTPQAQQLQDVLSWMQPGVSITSSLAWRQYGVDMGWLLPECSVTDSVNLAEPMEQNPPQQQRLALHNPLPKAKPGTHLPQGPSSRTHPEPLAGRHFNLAPLGRRRVQSQWASTRGGHKERPTVMLFPFRNLGSPTQVISKPESKEEHAIYTADLAMGTRAASTGKSKSPCQTLGGRALKENPVDLPATEQKENCLDCYMDPLRLSLLPPRARKPVCPPSLCSSVITIGDLVLDSDEEENGQGEGKESLENYQKTKFDTLIPTLCEYLPPSGHGAIPVSSCDCRDSSRPL
B3: Microcephalin (Homo sapiens), Q8NEM0 (parent)
chain: MAAPILKDVVAYVEVWSSNGTENYSKTFTTQLVDMGAKVSKTFNKQVTHVIFKDGYQSTWDKAQKRGVKLVSVLWVEKCRTAGAHIDESLFPAANMNEHLSSLIKKKRKCMQPKDFNFKTPENDKRFQKKFEKMAKELQRQKTNLDDDVPILLFESNGSLIYTPTIEINSRHHSAMEKRLQEMKEKRENLSPTSSQMIQQSHDNPSNSLCEAPLNISRDTLCSDEYFAGGLHSSFDDLCGNSGCGNQERKLEGSINDIKSDVCISSLVLKANNIHSSPSFTHLDKSSPQKFLSNLSKEEINLQRNIAGKVVTPDQKQAAGMSQETFEEKYRLSPTLSSTKGHLLIHSRPRSSSVKRKRVSHGSHSPPKEKCKRKRSTRRSIMPRLQLCRSEDRLQHVAGPALEALSCGESSYDDYFSPDNLKERYSENLPPESQLPSSPAQLSCRSLSKKERTSIFEMSDFSCVGKKTRTVDITNFTAKTISSPRKTGNGEGRATSSCVTSAPEEALRCCRQAGKEDACPEGNGFSYTIEDPALPKGHDDDLTPLEGSLEEMKEAVGLKSTQNKGTTSKISNSSEGEAQSEHEPCFIVDCNMETSTEEKENLPGGYSGSVKNRPTRHDVLDDSCDGFKDLIKPHEELKKSGRGKKPTRTLVMTSMPSEKQNVVIQVVDKLKGFSIAPDVCETTTHVLSGKPLRTLNVLLGIARGCWVLSYDWVLWSLELGHWISEEPFELSHHFPAAPLCRSECHLSAGPYRGTLFADQPAMFVSPASSPPVAKLCELVHLCGGRVSQVPRQASIVIGPYSGKKKATVKYLSEKWVLDSITQHKVCAPENYLLSQ
B4: Telomeric repeat-binding factor 2 (Homo sapiens), Q15554 (parent)
chain: MAAGAGTAGPASGPGVVRDPAASQPRKRPGREGGEGARRSDTMAGGGGSSDGSGRAAGRRASRSSGRARRGRHEPGLGGPAERGAGEARLEEAVNRWVLKFYFHEALRAFRGSRYGDFRQIRDIMQALLVRPLGKEHTVSRLLRVMQCLSRIEEGENLDCSFDMEAELTPLESAINVLEMIKTEFTLTEAVVESSRKLVKEAAVIICIKNKEFEKASKILKKHMSKDPTTQKLRNDLLNIIREKNLAHPVIQNFSYETFQQKMLRFLESHLDDAEPYLLTMAKKALKSESAASSTGKEDKQPAPGPVEKPPREPARQLRNPPTTIGMMTLKAAFKTLSGAQDSEAAFAKLDQKDLVLPTQALPASPALKNKRPRKDENESSAPADGEGGSELQPKNKRMTISRLVLEEDSQSTEPSAGLNSSQEAASAPPSKPTVLNQPLPGEKNPKVPKGKWNSSNGVEEKETWVEEDELFQVQAAPDEDSTTNITKKQKWTVEESEWVKAGVQKYGEGNWAAISKNYPFVNRTAVMIKDRWRTMKRLGMN
partner: B1 chain

Variants of: B1
Conditions: with terf2_human TERF2, Q15554
With Y236A;L238A the “effect of a mutation on the interaction” value was “disrupting interaction”.

Variants of: B2
Conditions: with terf2_human TERF2, Q15554
With F258A;L260A the “effect of a mutation on the interaction” value was “decreasing interaction”.

Variants of: B3
Conditions: with terf2_human TERF2, Q15554
For Y330A;L332A, the “effect of a mutation on the interaction” value was “disrupting interaction”.

Variants of: B4
Conditions: with pp1ra_mouse Ppp1r10, Q80W00
In the case of F162A, the “effect of a mutation on the interaction” value is reported as “disrupting interaction strength”.
